Biological target: AaRseP(WT)-His8 (Aquifex aeolicus RseP, wild type) (Aquifex aeolicus, UniProt O67776)
Assay: cryo-EM structure

binding result: binds
B1: 4A9 Fab (Fab of the anti-AaRseP mouse monoclonal antibody 4A9), with PA tag (Fab, V domains shown)
VH: EVKLVESGGGLVQPGGSLRLSCVTSGFTFTDYYMSWVRQPPGKALEWLAFIRNKVNGYTTEYRASVKGRFTISRDSSQSILYLQVNTLRAEDSATYYCARDRGGNGVYFDYWGQGTTLTVSS
VL: DIVMTQSHKFMSTSVGDRVSITCKASQDVGTDVAWYQQKPGQSPKLLIYWASIRHTGVPDRFTGSGSGTDFTLTISNVQSEDLADYFCQQYSSYPLTFGAGTKLELE

From paper PMC11864173 (Science Advances, 2025)
